The source of these data is patent US20220396619A1 (Eli Lilly, published 2022).

Assay [1] deals with T1, soluble human CD200R long isoform extracellular domain (ECD)-His polypeptide (human, UniProt Q8TD46 29-265).
T1 construct: Bought from R&D Systems, Cat. No. 10053-CD-050; also called Human CD200R long isoform ECD-His; human CD200R-ECD long isoform-His
T1 sequence: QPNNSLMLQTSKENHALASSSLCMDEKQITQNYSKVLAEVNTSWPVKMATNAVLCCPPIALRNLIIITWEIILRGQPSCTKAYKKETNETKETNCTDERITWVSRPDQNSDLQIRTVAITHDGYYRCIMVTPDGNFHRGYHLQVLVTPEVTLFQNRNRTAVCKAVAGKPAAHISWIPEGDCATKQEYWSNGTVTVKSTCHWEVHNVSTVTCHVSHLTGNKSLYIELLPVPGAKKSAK
As to the kind of experiment: SPR (Biacore T200), antibody captured on Protein A, receptor ECD-His as analyte, 37 C, n = 3. From the text: (§1) A BIACORE™ T200 (GE Healthcare, Piscataway, N.J.) is used to measure the binding kinetics and affinities of Antibody A to soluble human CD200R long isoform extracellular domain (ECD)-His polypeptide (SEQ ID NO: 17) (R&D Systems Cat. No. 10053-CD-050) and soluble cynomolgus monkey CD200R long isoform ECD-His polypeptide (SEQ ID NO: 19). Cynomolgus monkey CD200R ECD long isoform-His is expressed in HEK293 or CHO cells and purified using Ni SEPHAROSE™ excel column (GE Healthcare Life Sciences) and size exclusion chromatography.
(§2) A Series S CM4 chip (GE Healthcare Ca. No. BR-1005-34) is prepared using the manufacturer's EDC/NHS amine coupling method (GE Healthcare Cat. No. BR-1000-50). Briefly, the surfaces of all 4 flow cells are activated by injecting a 1:1 mixture of EDC/NHS for 7 minutes at 10 μL/minute. Protein A (Calbiochem Cat. No. 539202) is diluted to 100 μg/mL in 10 mM acetate pH 4.5 buffer and immobilized for approximately 400 RU onto all 4 flow cells by 7 minute injection at a flow rate of 10 μL/minute. Un-reacted sites are blocked with a 7 minute injection of ethanolamine at 10 μL/minute. Injections of 2×10 μL of glycine pH 1.5 are used to remove any non-covalently associated protein. Running buffer is 1× HBS-EP+ (10 mM HEPES, 150 mM NaCl, 0.05% Tween-20, pH 7.6, Teknova Cat. No. H8022).
(§3) Binding is evaluated using multi-cycle kinetics by an antibody capture method. Samples are diluted in 1× HBS-EP+ running buffer with 0.25% IgG free BSA (Jackson Immuno Research Cat. No. 001-000-161). Each cycle is performed at 37° C. at a flow rate of 20 μL/min for antibody capture to the Protein A chip and 30 μL/min for analyte association and dissociation.

The target of assay [2] is T2, soluble cynomolgus monkey CD200R long isoform ECD-His polypeptide (cynomolgus monkey).
T2 construct: Expressed in HEK293 or CHO cells; also called cynoCD200R long isoform ECD-His; cynoCD200R-ECD long isoform-His
T2 chain: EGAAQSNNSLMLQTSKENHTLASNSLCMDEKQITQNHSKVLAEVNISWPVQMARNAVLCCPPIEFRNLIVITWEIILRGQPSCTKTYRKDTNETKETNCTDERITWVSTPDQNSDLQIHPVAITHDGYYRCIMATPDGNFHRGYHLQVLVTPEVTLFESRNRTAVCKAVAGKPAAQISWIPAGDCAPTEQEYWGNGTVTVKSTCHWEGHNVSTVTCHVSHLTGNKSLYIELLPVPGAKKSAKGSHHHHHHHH
Described as above.
Description: as §1, §2, §3

Assay [3] has as its target T3, Human CD200R long isoform (human, UniProt Q8TD46 25-348).
T3 construct: Stably expressed on CHO cells; also called human CD200R long isoform on CHO cells
T3 chain: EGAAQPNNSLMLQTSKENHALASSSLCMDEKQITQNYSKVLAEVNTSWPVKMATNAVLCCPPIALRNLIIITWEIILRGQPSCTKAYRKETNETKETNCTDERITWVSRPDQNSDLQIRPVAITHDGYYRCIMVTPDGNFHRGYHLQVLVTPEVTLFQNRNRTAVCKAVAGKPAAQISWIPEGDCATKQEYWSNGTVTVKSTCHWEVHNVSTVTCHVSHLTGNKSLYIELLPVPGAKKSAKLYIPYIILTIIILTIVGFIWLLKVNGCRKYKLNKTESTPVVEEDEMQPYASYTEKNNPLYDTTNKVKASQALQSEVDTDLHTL
The assay can be described thus: flow cytometry on CHO cells expressing the receptor; midpoint of titration, one-site saturation fit. The method, then:
(§4) To perform flow cytometry, CD200R-expressing CHO cells are counted using a Vicell counter and pelleted by centrifugation at 1200 RPM, aspirated and resuspended in phosphate buffered saline (PBS). Cells are counted again and after another centrifugation are adjusted to 10⁶ cells/mL in flow cytometry wash buffer (PBS w/10% NGS & 2% FBS & 0.05% NaN₃) with Fc block (BD Biosciences). Cells are blocked on ice for 15 minutes. Next the tubes are centrifuged, aspirated, and washed once with cold wash buffer. After the wash, the cells are adjusted to 10⁶ cells/mL in wash buffer and plated at […] (50 μL) in a 96-well tissue culture plate (Corning 3799). Antibody A is titrated (1:3 dilutions) on the 96-well polystyrene plates (Corning 3879) starting at 30 μg/mL (final concentration) in cold wash buffer. Next, Antibody A is transferred at 50 μL/well into the Corning 3799 plate containing cells. The plates are incubated on ice for 45 minutes then washed twice with 150 μL cold wash buffer. Next, 100 μL secondary Goat anti-human IgG Fc-PE (Jackson Cat. No. 109-116-098 or Jackson Cat. No. 109-116-088) is added at a 1:500 or 1:400 dilution in wash buffer and incubated for 45 minutes on ice. Plates are washed twice and 200 μL propidium iodide (1:1000 dilution in wash buffer; Molecular Probes Cat. No. P3566) is added as the cell viability stain. The plates are covered with foil on ice. Flow cytometry is then performed using a Fortessa instrument acquiring with FACS Diva software (both from Becton Dickinson) and analyzing with FlowJo (version 10.5.3).
(§5) Antibody A is tested for its binding to recombinantly expressed isoforms of both human and cynomolgus monkey CD200R and the related activating cynomolgus monkey CD200RLa protein on Chinese Hamster Ovary (CHO) cell line surfaces using flow cytometry. The antibody is titrated onto CHO cells expressing the polypeptide of interest. The flow cytometry binding curves are fit using the one-site saturation binding model in GraphPad Prism.

Assay [4] concerns the target T4, Human CD200R short isoform (human, UniProt Q8TD46 46-348).
T4 construct: Stably expressed on CHO cells; also called human CD200R short isoform on CHO cells
T4 sequence: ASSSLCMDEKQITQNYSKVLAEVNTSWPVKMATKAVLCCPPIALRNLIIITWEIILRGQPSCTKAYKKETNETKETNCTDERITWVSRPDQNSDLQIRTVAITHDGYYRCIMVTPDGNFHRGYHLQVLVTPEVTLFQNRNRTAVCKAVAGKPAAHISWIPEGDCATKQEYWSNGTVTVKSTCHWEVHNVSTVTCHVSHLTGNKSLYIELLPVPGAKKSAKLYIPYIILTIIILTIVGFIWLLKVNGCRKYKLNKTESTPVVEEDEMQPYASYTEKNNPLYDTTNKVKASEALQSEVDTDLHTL
The assay is described as above. Here is the method: as §4, §5

Assay [5] deals with T5, Cynomolgus monkey CD200R long isoform (cynomolgus monkey).
T5 construct: Stably expressed on CHO cells; also called cynomolgus monkey CD200R long isoform on CHO cells
T5 chain: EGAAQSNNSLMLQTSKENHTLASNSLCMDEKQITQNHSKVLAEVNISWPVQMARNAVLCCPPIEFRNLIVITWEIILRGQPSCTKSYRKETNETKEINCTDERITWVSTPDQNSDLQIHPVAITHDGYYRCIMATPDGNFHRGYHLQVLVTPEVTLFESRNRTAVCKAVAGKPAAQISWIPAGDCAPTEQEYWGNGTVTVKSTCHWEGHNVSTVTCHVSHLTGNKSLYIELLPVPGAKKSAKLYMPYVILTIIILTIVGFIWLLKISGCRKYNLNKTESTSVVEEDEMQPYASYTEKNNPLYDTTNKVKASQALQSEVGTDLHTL
The description is as above. The method, then: as §4, §5

Assay [6] concerns the target T6, Cynomolgus monkey CD200RLa (cynomolgus monkey).
T6 construct: also called cynoCD200RLa
T6 chain: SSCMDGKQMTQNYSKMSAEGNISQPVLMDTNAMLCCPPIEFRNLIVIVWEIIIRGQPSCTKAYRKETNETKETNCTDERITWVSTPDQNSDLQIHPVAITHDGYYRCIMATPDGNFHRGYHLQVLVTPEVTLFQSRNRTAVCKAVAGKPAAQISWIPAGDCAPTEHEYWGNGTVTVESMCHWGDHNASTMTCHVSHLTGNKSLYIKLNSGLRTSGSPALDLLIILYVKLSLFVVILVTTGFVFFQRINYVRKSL
The description is as above. Here is the method:
as §4, §5

B1: Antibody A (antibody, human IgG4 S228P, kappa, F234A L235A, V domains shown)
VH: QVQLVESGGGVVQPGRSLRLSCAASGFTFSRYGMHWVRQAPGKGLEWVAVIPYDGSNKYYADSVKGRFTISRDISKNTLYLQMNSLRAEDTAVYYCARRGYYDSSGYYYFYYGMDVWGQGTTVTVSS
VL: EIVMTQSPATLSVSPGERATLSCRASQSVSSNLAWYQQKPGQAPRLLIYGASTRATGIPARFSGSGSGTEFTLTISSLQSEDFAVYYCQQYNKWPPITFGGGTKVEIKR
notes: The control used beside it is IgG4-PAA; also called Anti-human CD200R (Antibody A)
Take B1: the Kd was determined as 34.8 nM in assay [1] and 93.2 nM in assay [2]. The Stoichiometry worked out at 1.9 in assay [1] and 2.6 in assay [2]. The off-rate constant (koff) in assay [1] worked out at 0.00016 s⁻¹; in assay [2], 0.00056 s⁻¹. In addition, the kon is 4700 M⁻¹ s⁻¹ in assay [1] and 6200 M⁻¹ s⁻¹ in assay [2]. Further, the EC50 in assay [3] stood at 3.2 µg/mL; in assay [4], 1.1 µg/mL; in assay [5] it was 2.3 µg/mL; in assay [6] it was 3.7 µg/mL.
